Reference: publication PMC10777205, “Identification of the p-coumaric acid biosynthetic gene cluster in Kutzneria albida: insights into the diazotization-dependent deamination pathway” (Beilstein Journal of Organic Chemistry, 2024)

Tests used:
purified protein [1] = substrate: NC(=O)C1=CN([C@@H]2O[C@H](COP(=O)(O)OP(=O)(O)OC[C@H]3O[C@@H](n4cnc5c(N)ncnc54)[C@H](OP(=O)(O)O)[C@@H]3O)[C@@H](O)[C@H]2O)C=CC1; test: purified protein; format: biochemical, Streptomyces sp.; details: 3-DAA made in situ by CmaA6 from 1.0 mM 3-AAA, pH 8.0, varied: cofactor
purified protein [2] = substrate: [N-]=[N+]=C1C=C(/C=C/C=C/C(=O)O)C=CC1=O; test: purified protein; format: biochemical, Streptomyces sp.; details: 800 µM NADPH, 3-DAA made in situ by CmaA6, 25-400 µM, pH 8.0

B1: AvaA7 (Streptomyces sp.) (protein)
chain: MRVLVAGATGVIGHPLVGALRARGHNVSALVRDASRAPEADRVVVADALDREAVLSAVSAARPEVVVHQLTALRLLRDDPPEAFAQTARLRTEGTAHLVEAARAAGARRLVAQSIAFAAAPQGPPVLDEDAPLYVDAPDPGWAATVRAVAELERLVASSDLAGLVLRYGTLYGPGTGYARDGGTALRVLAGKLPLPEGGAGVTSFLHVDDAVGAAVAAVESEATGCLHVTDDEPAPAAQWLPHYARTLGAPPPRTLPAALAPRLLGWFMTHQLTTARGAANDRARTALGWKPTHPSWRDGLGRE
notes: recombinant
Purified protein [1]
  Km: 138 ± 10 µM
  kcat: 4.433 ± 0.0333 s⁻¹
  kcat/Km: 31700 M⁻¹ s⁻¹
Purified protein [2]
  Km: 152 ± 31 µM
  kcat: 10.2 ± 0.917 s⁻¹
  kcat/Km: 66700 M⁻¹ s⁻¹
